Publication PMC3657149, “Mig6 Is a Sensor of EGF Receptor Inactivation that Directly Activates c-Abl to Induce Apoptosis during Epithelial Homeostasis” (Developmental Cell, 2012)

Biological target: immunopurified Abl (UniProt P00519-2 1-1149)
Assay: cell-based or functional assay

Chain of immunopurified Abl (P00519 other isoform, or with tags, fused parts or gaps): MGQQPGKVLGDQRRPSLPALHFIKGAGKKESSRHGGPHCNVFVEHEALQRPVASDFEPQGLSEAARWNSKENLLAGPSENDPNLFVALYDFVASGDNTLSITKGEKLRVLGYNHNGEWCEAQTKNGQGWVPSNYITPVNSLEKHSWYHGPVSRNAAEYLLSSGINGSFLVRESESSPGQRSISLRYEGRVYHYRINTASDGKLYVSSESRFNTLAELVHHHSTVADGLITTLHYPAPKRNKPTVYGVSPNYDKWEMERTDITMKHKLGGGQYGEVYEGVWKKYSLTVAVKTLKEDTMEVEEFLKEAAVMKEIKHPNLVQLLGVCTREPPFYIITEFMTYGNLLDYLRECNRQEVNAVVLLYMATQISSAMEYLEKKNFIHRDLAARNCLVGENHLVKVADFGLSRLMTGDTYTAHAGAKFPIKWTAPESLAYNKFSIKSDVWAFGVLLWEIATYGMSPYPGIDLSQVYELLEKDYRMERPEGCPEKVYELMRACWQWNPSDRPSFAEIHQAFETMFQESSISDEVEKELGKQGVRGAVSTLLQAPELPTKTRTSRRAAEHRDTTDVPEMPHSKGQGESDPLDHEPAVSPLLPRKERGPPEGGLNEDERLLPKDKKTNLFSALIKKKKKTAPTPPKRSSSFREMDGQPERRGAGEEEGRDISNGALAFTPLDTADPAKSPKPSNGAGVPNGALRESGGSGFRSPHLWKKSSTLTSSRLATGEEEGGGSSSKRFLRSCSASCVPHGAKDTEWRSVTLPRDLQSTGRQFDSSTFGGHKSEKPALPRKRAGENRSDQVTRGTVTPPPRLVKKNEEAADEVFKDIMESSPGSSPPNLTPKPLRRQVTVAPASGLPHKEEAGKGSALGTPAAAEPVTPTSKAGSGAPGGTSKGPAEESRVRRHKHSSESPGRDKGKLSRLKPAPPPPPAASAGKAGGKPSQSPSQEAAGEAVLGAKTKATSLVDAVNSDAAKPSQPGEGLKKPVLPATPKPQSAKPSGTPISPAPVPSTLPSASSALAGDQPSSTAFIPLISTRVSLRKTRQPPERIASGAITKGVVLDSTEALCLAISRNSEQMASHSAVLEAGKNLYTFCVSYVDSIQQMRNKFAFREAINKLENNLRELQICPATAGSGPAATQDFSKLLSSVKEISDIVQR

activation (phosphorylation) of immunopurified Abl in the presence of bacterially produced Mig6: 2.2 fold
B1: bacterially produced Mig6 (natural protein, UniProt Q9UJM3 1-462, looked up)
chain: MSIAGVAAQEIRVPLKTGFLHNGRAMGNMRKTYWSSRSEFKNNFLNIDPITMAYSLNSSAQERLIPLGHASKSAPMNGHCFAENGPSQKSSLPPLLIPPSENLGPHEEDQVVCGFKKLTVNGVCASTPPLTPIKNSPSLFPCAPLCERGSRPLPPLPISEALSLDDTDCEVEFLTSSDTDFLLEDSTLSDFKYDVPGRRSFRGCGQINYAYFDTPAVSAADLSYVSDQNGGVPDPNPPPPQTHRRLRRSHSGPAGSFNKPAIRISNCCIHRASPNSDEDKPEVPPRVPIPPRPVKPDYRRWSAEVTSSTYSDEDRPPKVPPREPLSPSNSRTPSPKSLPSYLNGVMPPTQSFAPDPKYVSSKALQRQNSEGSASKVPCILPIIENGKKVSSTHYYLLPERPPYLDKYEKFFREAEETNGGAQIQPLPADCGISSATEKPDSKTKMDLGGHVKRKHLSYVVSP
